These results are taken from patent publication US20150299265A1 (Molecular Partners, published 2015).

For assay [1], the target named is T1, Recombinant human HER2 ectodomain (human, UniProt P04626 23-652, biotinylated on primary amines (for SPR and crude extract ELISA)).
T1 construct: extracellular domain; also called ErbB2; ectodomain of human HER2; not shown: Flag tag
Kind of assay: SPR (ProteOn); biotinylated human HER2 on neutravidin chip, monovalent DARPin injected. The procedure:
Protein binding kinetics of interesting purified HER2-binding DARPins were assayed by Surface Plasmon Resonance (SPR) analysis with a ProteOn array system (BioRad) using a setup, where biotinylated human HER2 was immobilized via neutravidin and the interaction was measured by adding free monovalent DARPin. The determination of Kd values was performed according to standard procedures.
SPR was measured using a ProteOn instrument (BioRad) and measurement was performed according standard procedures known to the person skilled in the art. The running buffer was PBS, pH 7.4, containing 0.005% Tween 20®. Neutravidin was covalently immobilized on a GLC chip (BioRad) to a level of about 8000 resonance units (RU). Immobilization of HER2 on the neutravidin coated chip was then performed. […] The signals (i.e. resonance unit (RU) values) of an uncoated reference cell and a reference injection (i.e. injection of running buffer only) were subtracted from the RU traces obtained after injection of […] (double-referencing). From the SRP traces obtained from the on-rate and off-rate measurements the on- and off-rate of the corresponding DARPin HER2 interaction can be determined.
Dissociation constants (Kd) were calculated from the estimated on- and off-rates using standard procedures known to the person skilled in the art.

For assay [2], the target named is T2, Human HER2 expressed on tumour cells (human, UniProt P04626 23-1255). Put plainly: cell-based or functional assay.
The target of assay [3] is T2, Human HER2 expressed on tumour cells. Kind of assay: cell-based or functional assay. This is another data set of the same source.
For assay [4], the target named is T1, Recombinant human HER2 ectodomain. Kind of assay: ELISA on plate-coated full length HER2 (domain I-IV), detection by anti-RGS-His antibody; with and without 500 nM soluble HER2 domain I or domain I-III.
Protocol: The DARPins (20 nM) were preincubated with HER2 domain I, domain I-III or domain III-IV (in each case at a domain concentration of 500 nM) in PBS for 45 min at room temperature. […] Bound DARPins were specifically detected using a monoclonal mouse anti RGS-His antibody (Qiagen Cat.34650) as primary antibody and an anti-mouse antibody labeled with horse radish peroxidase (Pierce, Cat.31438) as secondary antibody.
The read out was made at 450 nm.

B1: DARPin #5 (designed binder)
chain: MRGSHHHHHHGSDLGVKLLWAAARGQDDEVRILLAAGADVNAKDFQGITPLHIAATNGHLEIVEVLLKAGADVNAKDITGETPLHHAADSGHLEIVEVLLKAGADVNAQDKAGVTPADLAAAWGHEDIAEVLQKLN
notes: monovalent
In general, Kd refers to a measure of binding affinity in units of concentration. Regarding B1, the equilibrium dissociation constant (Kd) in assay [1] was 0.0708 nM.

B2: DARPin #41 (designed binder)
chain: MRGSHHHHHHGSDLGAKLLSDLGVKLLWAAARGQDDEVRILLAAGADVNAKDFQGITPLHIAAQSGHLEIVEVLLKAGADVNAKDVTGDTPLHLAAQHGHLVIVEVLLKAGADVNAQDERGWTPADLAADWGHEDIAEVLQKLGGGGSGGGGSRSDLGKKLLEAARAGQDDEVRILMANGADVNAKDEYGLTPLYLATAHGHLEIVEVLLKNGADVNAVDAIGFTPLHLAAFIGHLEIAEVLLKHGADVNAQDKFGKTAFDISIGNGNEDLAEILQKLN
As to B2, in assay [2], the “% activity vs. DARPin # 41, BT474 cell proliferation” value was determined as 100% and the “IC50 [nM], inhibition of BT474 cell proliferation (BrdU)” value is 4.01 nM. In addition, in assay [3], the “IC50, inhibition of BT474 proliferation (single experiment of FIG. 2A)” value is approximately 2 nM.

B3: DARPin #53 (designed binder)
chain: MRGSHHHHHHGSDLGAKLLWAAAKGQDDEVRILLAAGADVNAKDWEGVTPLHIAAHAGHLEIVEVLLKAGADVNAKDIIGWTPLHSAAVYGHLEIVEVLLKAGADVNAQDWYGTTPADLAAWWGHEDIAVVLQKLN
notes: monovalent
In the case of B3, the Kd in assay [1] amounted to 1.46 nM.

B4: DARPin #7 (designed binder)
chain: MRGSHHHHHHGSDLGIKLLFAAAKGQDDEVRILLAAGADVNAKDFEGYTPLHVAAYDGHLEIVEVLLKAGADVNAKDSQGRTPLHEAAYSGHLEIVEVLLKAGADVNAQDDAGETPADLAAAWGHEDIAEVLQKLN
notes: monovalent
On to B4, for which the Kd in assay [1] was 1.03 nM.

B5: DARPin #8 (designed binder)
chain: MRGSHHHHHHGSDLGIKLLWAAAHGQDDEVRILLAADADVNAKDWYGTTPLHIAAVAGHLEIVEVLLKAGADVNAKDDFGTTPLHLAAYHGHLEIVEVLLKAGADVNAQDWQGQTPADLAAQDGHEDIAEVLQKLN
notes: monovalent
Take B5: the Kd in assay [1] came out at 0.483 nM.

B6: DARPin #52 (designed binder)
chain: MRGSHHHHHHGSDLGVKLLWAAAHGQDDEVRILLAADADVNAKDWYGTTPLHIAAVAGHLEIVEVLLKAGADVNAKDDFGTTPLHAAADYGHLEIVEVLLKAGADVNAQDYTGHTPADLAAVYGHEDIAAVLQKLN
notes: monovalent
For the molecule B6, the dissociation constant Kd in assay [1] came out at 0.137 nM.

B7: DARPin #50 (designed binder)
chain: MRGSHHHHHHGSDLGKKLLEAARAGQDDEVRILMANGADVNAKDKDGYTPLHLAAREGHLEIVEVLLKAGADVNAKDKDGYTPLHLAAREGHLEIVEVLLKAGADVNAQDKFGKTAFDISIDNGNEDLAEILQKLN
notes: also called negative control ankyrin repeat domain
B7: in assay [4], the binding result was “no binding (tested: 20 nM (not printed on the sheet))”.

B8: DARPin #9 (designed binder)
chain: MRGSHHHHHHGSDLGHKLLEAAVAGQDDEVRILLAAGADVNAKDWYGKTPLHFAAGLGHLEIVEVLLKAGADVNAKDEDGQTPLHLAAAYGHLEIVEVLLKAGADVNAQDNDGFTPADLAADSGHEDIAEVLQKLN
notes: monovalent
As for B8, the equilibrium dissociation constant (Kd) in assay [1] was found to be 0.417 nM.
